Data from the supplement of paper PMC9732359.
± gives the uncertainty stated by the source.

Assay: protein stability index of a GFP-peptide fusion (yeast GPS) (PSI 1-4); higher = more stable; sorted into four equal gates, so the index is relative within each strain
Summary of the method: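 Yeast carrying a pooled library were grown to mid-log phase in leucine-free medium. Each library plasmid expresses Cherry and has a tiled 17-residue yeast protein peptide fused downstream of GFP. Cells were sorted into four equal gates by GFP/Cherry ratio, and plasmids from each gate were PCR-amplified, Illumina-sequenced and assigned to strains by barcode. Summing, across gates, the read frequency times the gate number gave each peptide's protein stability index.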

Sequence	protein stability index (doa10∆)	protein stability index (pdr5∆)	protein stability index (san1∆)	protein stability index (ubr1∆)
AKDKEIYNKMIGVLNNS [RPN13]	2.6 ± 0.084	2.94 ± 0.1	2.72 ± 0.053	2.93 ± 0.065
AKINEVYNNSKDEYLAQ [NSL1]	2.83 ± 0.047	3.06 ± 0.043	2.77 ± 0.048	2.75 ± 0.037
AKKHKLNAITLDGDRAD [SMC3]	2.37 ± 0.21	2.66 ± 0.28		
AKKRKTLILIQNPENLL [SIR3]	3.04 ± 0.094	2.54 ± 0.099	3.11 ± 0.092	2.78 ± 0.096
AKKTSTSVDGKKRSKVR [HTB2]	3.05 ± 0.19	2.98 ± 0.23	2.96 ± 0.27	3.31 ± 0.075
AKLNHLKKLEKFMELER [SWI3]	2.9 ± 0.064	2.83 ± 0.069	3.03 ± 0.054	2.66 ± 0.058
AKPDNLANFSNEVAMNN [SWP82]	3.22 ± 0.082	3.21 ± 0.078	3.13 ± 0.052	3.23 ± 0.067
AKRDYIISRLNADFQKP [FAS1]	3.32 ± 0.13	3.07 ± 0.085	2.94 ± 0.091	3.22 ± 0.077
AKYHAKLNKKLQHLRSR [SRP68]	3.3 ± 0.088	3.44 ± 0.078	3.26 ± 0.046	3.07 ± 0.059
ALERYDEAEGRFEVINN [SMC1]		1.12 ± 0.17		
ALFLSKINRPPVSVSRI [RPL18A]	2.29 ± 0.14	1.63 ± 0.076	1.6 ± 0.14	2.16 ± 0.16
ALGQDTEKMEEQLDLLS [MED11]	3.03 ± 0.099	3.09 ± 0.082	2.99 ± 0.073	3.31 ± 0.064
ALHYLVPFIIAAMVIMH [COB]	1.73 ± 0.066	1.29 ± 0.061	1.61 ± 0.15	1.4 ± 0.055
ALIKFMEYHISNTDETK [FAS2]	2.77 ± 0.1	2.5 ± 0.077	2.59 ± 0.12	2.3 ± 0.055
ALKNACNSIINKLGALK [RPB11]	2.89 ± 0.29		2.95 ± 0.11	3.17 ± 0.15
ALLGDKIYNFGELLHHP [RPN9]			2.36 ± 0.29	
ALLRPGRLDRKVEIPLP [RPT4]	2.99 ± 0.28			
ALLRSGRLDRKIEFPLP [RPT5]				3.43 ± 0.18
ALLTVLKALSHHYNPKT [BRR2]	2.28 ± 0.07	2.25 ± 0.051	1.91 ± 0.081	2.41 ± 0.062
ALPDAVTIIEPKEEEPI [RPS3]	2.93 ± 0.059	2.99 ± 0.065	3.06 ± 0.061	3.04 ± 0.058
ALPHVEINQVSLALVIR [RGR1]	1.91 ± 0.12	3 ± 0.22	2.24 ± 0.13	2.71 ± 0.086
ALRRRVGPSEQNFAEED [REC8]	3.37 ± 0.12	3.51 ± 0.15	3.39 ± 0.11	3.24 ± 0.098
ALVAGIERYPSKVTKKH [RPL27B]	1.86 ± 0.082	1.99 ± 0.063	1.47 ± 0.12	1.96 ± 0.2
ALYRVNDLRDMILNYNP [UBP6]	2.81 ± 0.12	2.73 ± 0.19	2.81 ± 0.17	2.99 ± 0.12
AMFEICLKRGWGHPTRM [BRR2]			2.21 ± 0.14	2.96 ± 0.18
AMHYSSNIELAFSSVEH [COB]	1.93 ± 0.058	1.9 ± 0.06	1.91 ± 0.087	2.09 ± 0.082

Sequence	protein stability index (doa10∆)	protein stability index (pdr5∆)	protein stability index (san1∆)	protein stability index (ubr1∆)
AMIALSMILIQQTEKLN [RPN2]	1.32 ± 0.077	1.35 ± 0.066	1.45 ± 0.14	1.6 ± 0.064
ANAVQNNNGNSAASKKK [SRP21]	3.06 ± 0.11	3.29 ± 0.11	2.96 ± 0.092	2.93 ± 0.11
ANFKTSKKYQLADWRIR [RRP6]	2.97 ± 0.1	3.05 ± 0.096	2.84 ± 0.15	2.92 ± 0.1
ANLRVLNSYWVNQDSTY [RPL15A]	2.62 ± 0.072	2.23 ± 0.067	2.78 ± 0.058	2.37 ± 0.064
ANNNGSNLQRAQNVPMN [GAL11]	3.09 ± 0.096	3.54 ± 0.12	3.17 ± 0.099	3.09 ± 0.085
ANNNINSASSAPTPAAP [SWI1]	2.99 ± 0.064	2.88 ± 0.077	3.05 ± 0.078	2.97 ± 0.064
ANNQEYDLNFKLRETLV [SMC1]			3.63 ± 0.18	3.41 ± 0.21
ANSESGHYQAFIRDELD [UBP6]	3.31 ± 0.28	2.76 ± 0.11		2.66 ± 0.17
ANSQIQAYEEIISSNEN [YIL149C/MLP2]	2.95 ± 0.19	3.46 ± 0.17	3.31 ± 0.22	3.45 ± 0.12
ANSSITPAFGSNNTGNT [YJL041W/NSP1]	2.65 ± 0.068	2.86 ± 0.049	2.72 ± 0.048	2.87 ± 0.031
ANTSNNLFGATANANKP [YJL041W/NSP1]	3.32 ± 0.066	3.27 ± 0.044	3.24 ± 0.043	3.22 ± 0.045
ANVEILAVEDKPSPIDS [CSL4]	2.98 ± 0.095	2.97 ± 0.13	2.57 ± 0.15	3.12 ± 0.063
ANVVDITNDWEQPCVDI [YJR042W/NUP85]	3.3 ± 0.071	3.41 ± 0.062	3.23 ± 0.051	3.12 ± 0.06
ANYIKERTKNAQFIVIS [SMC4]	2.76 ± 0.11	1.5 ± 0.067	1.49 ± 0.11	2.27 ± 0.071
APEIPEDLYYLIKKAVS [RPS13]	2.94 ± 0.081	2.92 ± 0.096	3.07 ± 0.079	2.69 ± 0.13
APSIGRWYQLIATGCKD [YGL100W/SEH1]	1.52 ± 0.089	1.65 ± 0.068	1.64 ± 0.11	2.17 ± 0.071
AQAQAQAQAQAQAQAQA [GAL11]	2.95 ± 0.03	3.23 ± 0.035	2.98 ± 0.026	3.09 ± 0.033
AQASEEENDLQQKLNTR [REC8]	2.96 ± 0.26			
AQAWINLGEYYAQIGDK [RPN7]	2.41 ± 0.11	2.77 ± 0.1	2.8 ± 0.11	2.76 ± 0.12
AQDEVFSLAFSPNRYWL [ASC1]	2.78 ± 0.24	2.75 ± 0.17	2.54 ± 0.18	2.38 ± 0.19
AQDFINAYASFLQRQGK [RPS19A]	2.91 ± 0.061	3.07 ± 0.064	3.01 ± 0.06	3 ± 0.046
AQDFKTDLRFQSSAIGA [HHT1]	1.32 ± 0.12	1.41 ± 0.14	1.24 ± 0.19	1.3 ± 0.23
AQFIVISLRNNMFELAQ [SMC4]	2.14 ± 0.11	1.67 ± 0.082	1.51 ± 0.092	2.02 ± 0.09
AQFVSNKQYHQANSNLT [NUT1]	2.94 ± 0.081	3.21 ± 0.076	3 ± 0.1	3.23 ± 0.092
AQLTHSLRRIRDEMSKA [MED8]	2.33 ± 0.12	2.35 ± 0.07	2.02 ± 0.11	1.99 ± 0.052
